This note sets out measurements from US20230079439A1, “Compositions and Methods for Enhancing Beta Cell Maturation, Health and Function” (THE REGENTS OF THE UNIVERSITY OF CALIFORNIA, priority 2016, published 2023).

The target of the assay is transcellular partners. The assay is described as follows: cell-based or functional assay.

Substance “Soluble neuroligin-2 extracellular domain (receptor)” yielded a half-maximal inhibition of insulin secretion by rat islets (20 mM glucose) of 9 nM.
